What was measured:
[1] = biological target: T1, C5 (Homo sapiens, UniProt P01031); assay: Biacore (SPR) single-cycle kinetics on immobilised C5; assay type: binding; conditions: C5 binding, Biacore, n = 3 independent experiments; for Mean Koff: in 1/s
Method: Binding to C5 was measured using surface plasmon resonance (SPR) single-cycle kinetics as described below.
Biacore single-cycle kinetics. Using a Biacore 8K (GE Healthcare), C5 was immobilized on a CM5 chip by amine coupling. Flow cells were activated using EDC/NHS (flow rate, 10 μL/min; contact time, 30 s). C5, at 1 μg/mL in pH 4.5 Sodium-acetate buffer, was immobilized on flow cell two only (flow rate, 10 μL/min; contact time, 420 s). Finally, ethanolamine was applied to both flow cells (flow rate, 10 μL/min; contact time, 420 s). A final immobilization level of approximately 2,000 response units was obtained.
Single-cycle kinetics were measured using titrations in HBS-EP buffer. A high flow rate of 40 μL/min was used, with a contact time of 230 s and a dissociation time of 900 s. Binding to the reference surface was subtracted, and the data were fitted to a single-site binding model using Biacore evaluation software.
We measured individual rate constants (kon and koff) and equilibrium dissociation constants (KD) for knob domain peptides binding to C5 by the Biacore single-cycle kinetics method described above.
We used SPR single cycle kinetics to measure binding to human C5 protein.

[2] = biological target: C3 protein (Homo sapiens, UniProt P01024); conditions: C3 coated directly and biotinylated C3 captured on streptavidin; OD 630 nm
C3 protein, sequence (P01024 23-1663): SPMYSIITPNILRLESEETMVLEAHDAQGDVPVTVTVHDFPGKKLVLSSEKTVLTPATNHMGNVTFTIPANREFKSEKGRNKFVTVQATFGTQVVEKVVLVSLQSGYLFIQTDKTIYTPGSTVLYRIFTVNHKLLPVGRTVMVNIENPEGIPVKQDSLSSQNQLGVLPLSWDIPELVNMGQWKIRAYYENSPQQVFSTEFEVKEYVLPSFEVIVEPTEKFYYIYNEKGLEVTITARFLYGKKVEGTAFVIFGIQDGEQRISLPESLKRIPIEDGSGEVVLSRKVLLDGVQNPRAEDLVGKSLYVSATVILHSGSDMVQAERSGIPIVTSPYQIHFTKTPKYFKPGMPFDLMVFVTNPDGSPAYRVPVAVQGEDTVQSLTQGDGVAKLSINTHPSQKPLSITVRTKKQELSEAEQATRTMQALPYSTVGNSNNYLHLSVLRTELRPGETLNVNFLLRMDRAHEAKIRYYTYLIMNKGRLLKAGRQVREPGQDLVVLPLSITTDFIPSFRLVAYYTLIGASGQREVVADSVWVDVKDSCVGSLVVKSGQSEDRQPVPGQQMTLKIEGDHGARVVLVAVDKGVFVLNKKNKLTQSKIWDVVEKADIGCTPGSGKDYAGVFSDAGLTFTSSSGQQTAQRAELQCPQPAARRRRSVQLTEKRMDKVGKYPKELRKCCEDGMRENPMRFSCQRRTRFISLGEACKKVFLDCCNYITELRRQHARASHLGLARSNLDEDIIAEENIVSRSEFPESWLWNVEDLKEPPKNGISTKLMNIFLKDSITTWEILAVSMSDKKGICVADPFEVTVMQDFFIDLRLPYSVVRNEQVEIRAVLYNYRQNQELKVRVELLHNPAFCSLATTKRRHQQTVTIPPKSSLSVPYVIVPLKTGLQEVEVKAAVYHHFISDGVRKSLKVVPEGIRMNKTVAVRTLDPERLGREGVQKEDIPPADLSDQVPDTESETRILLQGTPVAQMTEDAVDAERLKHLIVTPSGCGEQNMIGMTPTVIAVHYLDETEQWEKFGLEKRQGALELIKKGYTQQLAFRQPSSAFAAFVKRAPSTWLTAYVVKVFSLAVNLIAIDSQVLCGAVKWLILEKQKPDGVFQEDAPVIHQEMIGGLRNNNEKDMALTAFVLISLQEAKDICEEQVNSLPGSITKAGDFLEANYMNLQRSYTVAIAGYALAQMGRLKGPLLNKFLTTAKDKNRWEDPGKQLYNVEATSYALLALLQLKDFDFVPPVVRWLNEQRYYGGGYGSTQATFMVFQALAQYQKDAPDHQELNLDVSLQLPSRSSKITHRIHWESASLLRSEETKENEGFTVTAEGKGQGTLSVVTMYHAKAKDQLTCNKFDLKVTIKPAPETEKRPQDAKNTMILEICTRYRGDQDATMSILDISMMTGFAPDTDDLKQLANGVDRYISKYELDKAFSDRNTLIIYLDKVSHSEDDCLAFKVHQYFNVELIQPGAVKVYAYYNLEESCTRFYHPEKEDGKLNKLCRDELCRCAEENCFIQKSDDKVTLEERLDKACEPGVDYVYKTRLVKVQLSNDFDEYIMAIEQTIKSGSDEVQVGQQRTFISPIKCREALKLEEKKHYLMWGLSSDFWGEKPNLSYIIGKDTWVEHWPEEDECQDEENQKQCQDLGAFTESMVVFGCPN

[3] = biological target: T1, C5; conditions: C5 coated directly and biotinylated C5 captured on streptavidin; OD 630 nm
[4] = biological target: T1, C5; assay: Monoclonal phage screening ELISA, human C5; assay type: binding; conditions: anti-C5 ultralong CDR-H3; binder = OD>0.2 AU
Method: For the C5 libraries, a single round of enrichment was performed with either human or rat C5 protein. […] Phage were blocked for 30 minutes. Biotinylated antigen was added to the blocked phage at a concentration of 100 nM and incubated at room temperature with mixing.
Colonies were picked into a 96-well culture plate containing selective medium 2TY supplemented with 1% Glucose and 100 μg/ml Carbenicillin and was incubated at 37° C. until wells reached mid-log phase of growth prior to addition of M13K07 helper phage. The block was incubated without shaking for 1 hour to achieve infection and phage production using continued culture in selective media supplemented with 50 μg/ml Kanamycin and 100 μg/ml Carbenicillin.
Binding to antigen was assessed by monoclonal phage ELISA, 96-well flat bottom Nunc MaxiSorp plates (Thermofisher) were coated with a 2.5 μg/ml solution of human, mouse, or rat serum albumin, human C5 or mouse C5 diluted with PBS, and left overnight at 4° C. Negative control plate and Anti-myc tag plate were also prepared.
Monoclonal phage rescue supernatants were blocked with an equal volume of a 2% milk (w/v) in PBS, for serum albumin proteins, or 2% BSA and 2% milk (w/v) in PBS solution. The coating solution was removed from coated Nunc plates and each plate was blocked with 1% BSA in PBS (for C5 libraries) or 1% milk powder (for albumin library). Both phage and Nunc plates were blocked for 1 hour at room temperature. Nunc plates were washed using a 96-well microplate washer (BioTek) with a PBS solution contain 0.1% Tween20 (Sigma Aldrich). 100 of blocked phage solution was added to each well of Nunc MaxiSorp plate and left shaking at room temperature for 1 hour. Plates were washed and dried as previously described. 100 of an Anti-M13-Horse radish peroxidase conjugated antibody (GE Healthcare) diluted (1:5,000) in a 1% BSA or milk solution was added to each well and left shaking at room temperature for 1 hour. Plates were washed again and 50 μL of TMB solution (Merck Millipore) was added to each well. Plates were left shaking for 10 minutes. Absorbance was measured at 630 nm and 490 nm. Binding signals were obtained where Absorbance at 630 nm was >3-times the signal upon irrelevant antigen.
By monoclonal phage ELISA the following ultralong CDR-H3 sequences were identified as binders (OD>0.2 AU): […]

[5] = biological target: human complement component C3 (Homo sapiens, UniProt P01024); assay: SPR binding / counter screen on complement component C3; conditions: Biacore, n = 3 independent experiments
human complement component C3, sequence (P01024 23-1663): as above
Description: The PGT121-knob domain fusion proteins were counter screened for binding to human complement component C3. C3 is the closest human homologue to C5, sharing a conserved fold and a sequence homology of 26.5%.
We measured binding to C3 and C5 by SPR multi-cycle kinetics and we report full binding kinetics and equilibrium dissociation constants (KD) for binding to both proteins.

T1 sequence (P01031 19-1676): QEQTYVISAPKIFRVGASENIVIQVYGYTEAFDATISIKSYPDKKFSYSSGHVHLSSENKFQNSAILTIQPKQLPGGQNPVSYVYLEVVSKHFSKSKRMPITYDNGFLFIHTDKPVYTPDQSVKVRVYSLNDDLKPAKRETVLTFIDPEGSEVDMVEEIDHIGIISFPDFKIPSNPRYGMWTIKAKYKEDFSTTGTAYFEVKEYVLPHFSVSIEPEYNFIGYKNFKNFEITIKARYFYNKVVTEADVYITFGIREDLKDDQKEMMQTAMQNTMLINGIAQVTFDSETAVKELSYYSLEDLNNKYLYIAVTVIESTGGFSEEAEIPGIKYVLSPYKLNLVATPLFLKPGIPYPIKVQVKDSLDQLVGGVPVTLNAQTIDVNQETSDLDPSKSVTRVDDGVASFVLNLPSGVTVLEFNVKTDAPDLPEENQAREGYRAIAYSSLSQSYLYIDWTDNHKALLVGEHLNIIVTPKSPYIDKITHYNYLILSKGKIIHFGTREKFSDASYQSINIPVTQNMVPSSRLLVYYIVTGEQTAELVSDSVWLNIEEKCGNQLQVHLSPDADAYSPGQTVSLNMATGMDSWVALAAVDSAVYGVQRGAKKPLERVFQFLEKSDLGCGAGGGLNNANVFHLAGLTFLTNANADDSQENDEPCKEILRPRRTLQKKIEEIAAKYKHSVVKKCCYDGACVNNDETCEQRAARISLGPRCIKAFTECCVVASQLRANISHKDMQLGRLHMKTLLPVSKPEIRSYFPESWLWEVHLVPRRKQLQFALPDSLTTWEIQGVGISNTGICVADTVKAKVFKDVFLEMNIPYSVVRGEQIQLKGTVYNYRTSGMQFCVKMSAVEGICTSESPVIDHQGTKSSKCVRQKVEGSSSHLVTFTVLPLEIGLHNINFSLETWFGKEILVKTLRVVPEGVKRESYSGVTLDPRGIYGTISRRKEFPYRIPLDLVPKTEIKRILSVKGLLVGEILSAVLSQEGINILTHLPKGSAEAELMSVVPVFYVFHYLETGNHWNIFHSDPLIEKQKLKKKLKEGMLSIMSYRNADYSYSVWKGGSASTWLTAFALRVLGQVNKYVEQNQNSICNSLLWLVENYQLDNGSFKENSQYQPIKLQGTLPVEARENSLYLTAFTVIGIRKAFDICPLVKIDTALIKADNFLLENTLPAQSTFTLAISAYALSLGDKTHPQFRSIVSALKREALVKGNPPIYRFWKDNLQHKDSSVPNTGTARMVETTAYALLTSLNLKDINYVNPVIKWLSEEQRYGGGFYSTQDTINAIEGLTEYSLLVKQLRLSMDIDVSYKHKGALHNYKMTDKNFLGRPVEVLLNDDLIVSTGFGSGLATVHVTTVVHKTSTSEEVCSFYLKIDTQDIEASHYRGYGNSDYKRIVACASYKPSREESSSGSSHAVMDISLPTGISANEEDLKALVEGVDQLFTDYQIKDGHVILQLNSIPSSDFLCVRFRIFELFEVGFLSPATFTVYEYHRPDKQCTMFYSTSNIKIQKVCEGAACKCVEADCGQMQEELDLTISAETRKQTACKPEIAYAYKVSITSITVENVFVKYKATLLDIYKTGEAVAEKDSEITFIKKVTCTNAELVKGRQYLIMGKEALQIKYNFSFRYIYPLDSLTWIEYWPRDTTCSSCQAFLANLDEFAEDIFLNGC

Molecule	Mean Kon [1]	Mean Koff [1]	binding to human C5 (phage ELISA) [3]	also measured
hC3Nb1 C-Term (protein, left off: a dimerising Fc or GST) VHH: QVQLVETGGGLVQAGGSLRLSCAASGSIFSLNAMGWFRQAPGKEREFVATINRSGGRTYYADSVKGRFTISRDNGKNMVYLQMHSLKPEDTAIYYCAAGTGWSPQTDNEYNYWGQGTQVTVSSGGGSGCPPGYKSGVDCSPGSECKWGCYAVDGRRYGGYGADSGV	4.52E+05	1.19E−04	–	–
hC3nb1: camelid VHH which binds C3 and C3b, PDB code 6EHG (protein, left off: a dimerising Fc or GST) VHH: QVQLVETGGGLVQAGGSLRLSCAASGSIFSLNAMGWFRQAPGKEREFVATINRSGGRTYYADSVKGRFTISRDNGKNMVYLQMHSLKPEDTAIYYCAAGTGWSPQTDNEYNYWGQGTQVTVSS	–	–	No cross-reactivity to C5 protein was observed	binding to human C3 (phage ELISA) [2]: binding to human C3
hC3nb1-K92: hC3nb1 with K92 ultralong CDR-H3 inserted between H74 and H75, displayed on M13 phage (protein, left off: large carriers) VHH: QVQLVETGGGLVQAGGSLRLSCAASGSIFSLNAMGWFRQAPGKEREFVATINRSGGRTYYADSVKGRFTISRDNGSIVHQKAHTSVTCPEGWSECGVAIYGYECGRWGCGHFLNSGPNISPYVSTHKYEWYVDAKNMVYLQMHSLKPEDTAIYYCAAGTGWSPQTDNEYNYWGQGTQVTVSS	–	–	displayed binding to human C5	–
hC3nb1-K57: hC3nb1 with K57 ultralong CDR-H3 inserted between H74 and H75, displayed on M13 phage (protein, left off: large carriers) VHH: QVQLVETGGGLVQAGGSLRLSCAASGSIFSLNAMGWFRQAPGKEREFVATINRSGGRTYYADSVKGRFTISRDNGTTVHQRTIKSGCPPGYKSGVDCSPGSECKWGCYAVDGRRYGGYGADSGVGSTYTHEFYVDAKNMVYLQMHSLKPEDTAIYYCAAGTGWSPQTDNEYNYWGQGTQVTVSS	–	–	displayed binding to human C5	–
hC3Nb1 Loop 3 (protein, left off: a dimerising Fc or GST) VHH: QVQLVETGGGLVQAGGSLRLSCAASGSIFSLNAMGWFRQAPGKEREFVATINRSGGRTYYADSVKGSGGGSGCPPGYKSGVDCSPGSECKWGCYAVDGRRYGGYGADSGVSGGGSRFTISRDNGKNMVYLQMHSLKPEDTAIYYCAAGTGWSPQTDNEYNYWGQGTQVTVSS	2.37E+05	1.37E−04	–	–
542 (protein, Anti-C5 ultralong CDR-H3) CDR: TTVVQRTHKTTSCPDGYHFIEPCHSGLCWREGACNGDGICANGLGRCRTVSETSTYEFYVN	–	–	–	Specificity [4]: Human
568 (protein, Anti-C5 ultralong CDR-H3) CDR: TTVVQRTRKIVTCPDGYSYSEGCGKGDDCGGVHCCANGGVTCWYRHCCSTGTDTYSYEWYVD	–	–	–	Specificity [4]: Human
hC3Nb1Loop2ΔP (protein, left off: a dimerising Fc or GST) VHH: QVQLVETGGGLVQAGGSLRLSCAASGSIFSLNAMGWFRQASGGGSGCPPGYKSGVDCSPGSECKWGCYAVDGRRYGGYGADSGVSGGGSKEREFVATINRSGGRTYYADSVKGRFTISRDNGKNMVYLQMHSLKPEDTAIYYCAAGTGWSPQTDNEYNYWGQGTQVTVSS	1.76E+05	1.48E−04	–	Kd [5]: 1.51 nM; Mean Kon [5]: 7.32E+05; Mean Koff ([5]; in 1/s): 2.01E−04
hC3nb1-K8: hC3nb1 with K8 ultralong CDR-H3 inserted between H74 and H75, displayed on M13 phage (protein, left off: large carriers) VHH: QVQLVETGGGLVQAGGSLRLSCAASGSIFSLNAMGWFRQAPGKEREFVATINRSGGRTYYADSVKGRFTISRDNGTVQQKTHQVCPDGFNWGYGCAAGSSRFCTRHDWCCYDERADSHTYGFCTGNRVTNTYEFHADAKNMVYLQMHSLKPEDTAIYYCAAGTGWSPQTDNEYNYWGQGTQVTVSS	–	–	displayed binding to human C5	–
hC3Nb1 N-Term (protein, left off: a dimerising Fc or GST) VHH: TTVHQRTIKSGCPPGYKSGVDCSPGSECKWGCYAVDGRRYGGYGADSGVGSTYTHEFYVDAWGQGSSSSGSSSSGQVQLVETGGGLVQAGGSLRLSCAASGSIFSLNAMGWFRQAPGKEREFVATINRSGGRTYYADSVKGRFTISRDNGKNMVYLQMHSLKPEDTAIYYCAAGTGWSPQTDNEYNYWGQGTQVTVSS	6.18E+05	1.18E−04	–	–
564 (protein, Anti-C5 ultralong CDR-H3) CDR: TTVHQHTRKSGSCPDGWSDCHGSCDGVGCTGSDCVRYNARGYGRHACSGYAYTYSYEFYVN	–	–	–	Specificity [4]: Human
hC3nb1-K149: hC3nb1 with K149 ultralong CDR-H3 inserted between H74 and H75, displayed on M13 phage (protein, left off: large carriers) VHH: QVQLVETGGGLVQAGGSLRLSCAASGSIFSLNAMGWFRQAPGKEREFVATINRSGGRTYYADSVKGRFTISRDNGTSVLQSTKPQKSCPDGFSYRSWDDFCCPMVGRCLAPRNTYTTEFTIEAKNMVYLQMHSLKPEDTAIYYCAAGTGWSPQTDNEYNYWGQGTQVTVSS	–	–	did not bind	binding to human C3 (phage ELISA) [2]: did not bind
563 (protein, Anti-C5 ultralong CDR-H3) CDR: TTVHQQTKKQKSCPDGWGHSDDCNCACSANAYACCKRDWLLPGPSCECSTYCVSHTYQWYV	–	–	–	Specificity [4]: Human
hC3Nb1 Loop 2 (protein, left off: a dimerising Fc or GST) VHH: QVQLVETGGGLVQAGGSLRLSCAASGSIFSLNAMGWFRQAPSGGGSGCPPGYKSGVDCSPGSECKWGCYAVDGRRYGGYGADSGVSGGGSKEREFVATINRSGGRTYYADSVKGRFTISRDNGKNMVYLQMHSLKPEDTAIYYCAAGTGWSPQTDNEYNYWGQGTQVTVSS	2.85E+05	9.09E−05	–	–

— patent US20240024520A1, “AUTONOMOUS KNOB DOMAIN PEPTIDES” (UCB BIOPHARMA SRL, priority 2020, published 2024)
